Laboratory results taken from patent EP4786492A1.
Changes are numbered by the printed parent chain.

B1: mab008 scFv-hFc (Fc fusion, part only; not given: linker and human IgG1 Fc, not shown: a dimerising Fc or GST)
chain, part: DIVMTQSQKFMSTSVGDRVSITCKASQNVGTAVAWYQQKPGQSPKLLIFSASIRYTGVPDRFTGSGSGTDFTLTISNMQSEDLADYFCQQYSSSPYTFGGGTKLEIKEVQLQQSGPVLVKPGASVKMSCKASGYTFTDYYMNWVKRSHGKSLEWIGIINPYNGGTSYNQKFRGKATLTVDKSSNTAYMELNSLTSEDSAVYYCSRYDYDYDVEGAMDYWGQGTSVTVSS
B2: Hab008L1H2a-hFc (scFv, part only; not given: VL-VH linker and human IgG1 Fc, V domains shown, not shown: another chain or arm of the molecule; a dimerising Fc or GST; small tags and cut ends)
VL: DIQMTQSPSSLSASVGDRVTITCKASQNVGTAVAWYQQKPGKSPKLLIFSASIRYTGVPSRFSGSGSGTDFTLTISSLQPEDFATYYCQQYSSSPYTFGGGTKVEIK
VH: EVQLVQSGAEVKKPGASVKVSCKASGYTFTDYYMNWVRQAPGQRLEWMGIINPYNSGTSYNQKFRGRVTLTVDKSASTAYMELSSLRSEDTAVYYCSRYDYDYDVEGAMDYWGQGTTVTVSS
B3: Hab008L1H5-hFc (scFv, part only; not given: VL-VH linker and human IgG1 Fc, V domains shown, not shown: another chain or arm of the molecule; a dimerising Fc or GST; small tags and cut ends)
VL: B2 VL
VH: B2 VH with Q39R, S56G, L70I
B4: Hab009VL3aVH1-hFc (Fc fusion, part only; not given: Linker and human IgG1 Fc, not shown: a dimerising Fc or GST)
chain, part: DIVMTQSPLSLPVTPGEPASISCRASQTISDYLHWYLQKSHQSPQLLIKYASQSISGVPDRFSGSGSGTDFTLKISRVEAEDVGVYYCQQGHSFPLTFGQGTKLEIKEVQLVQSGAEVKKPGASVKVSCKASGYTFTSYWMHWVRQAPGQRLEWMGTIYPGNSDTRYNQKFKDRVTITADTSASTAYMELSSLRSEDTAVYYCTRSYDYGDLDYWGQGTTVTVSS

Legend:
[1] = target: DLL3 endogenously expressed on NCI-H82 cells (UniProt Q9NYJ7); test: FACS on NCI-H82 cells; antibody 100 nM
Sequence of DLL3 endogenously expressed on NCI-H82 cells (Q9NYJ7 27-618): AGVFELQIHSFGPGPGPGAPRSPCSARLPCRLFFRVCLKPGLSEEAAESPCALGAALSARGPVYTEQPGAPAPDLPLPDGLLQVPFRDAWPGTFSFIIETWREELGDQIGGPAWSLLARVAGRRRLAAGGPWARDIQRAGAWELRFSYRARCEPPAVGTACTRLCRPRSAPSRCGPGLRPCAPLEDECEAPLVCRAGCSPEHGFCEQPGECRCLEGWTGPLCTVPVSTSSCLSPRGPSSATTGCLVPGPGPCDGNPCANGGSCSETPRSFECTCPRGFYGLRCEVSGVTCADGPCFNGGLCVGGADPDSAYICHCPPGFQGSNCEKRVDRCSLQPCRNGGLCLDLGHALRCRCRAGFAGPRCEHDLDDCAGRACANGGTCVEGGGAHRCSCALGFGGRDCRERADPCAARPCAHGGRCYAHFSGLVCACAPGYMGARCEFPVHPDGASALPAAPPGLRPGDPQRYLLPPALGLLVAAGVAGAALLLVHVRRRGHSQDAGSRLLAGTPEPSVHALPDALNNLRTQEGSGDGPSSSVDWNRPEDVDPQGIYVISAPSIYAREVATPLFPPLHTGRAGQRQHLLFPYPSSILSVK

[2] = target: DLL3 endogenously expressed on NCI-H82 cells (UniProt Q9NYJ7); test: FACS on NCI-H82 cells; antibody 0.8 nM
[3] = target: human DLL3 protein (extracellular segment, His tag) (human) (UniProt Q9NYJ7); test: SPR (Biacore 8K), antibody captured on Protein A chip, DLL3 antigen in solution, 1:1 Langmuir fit
Sequence of human DLL3 protein (extracellular segment, His tag) (human) (Q9NYJ7 27-492): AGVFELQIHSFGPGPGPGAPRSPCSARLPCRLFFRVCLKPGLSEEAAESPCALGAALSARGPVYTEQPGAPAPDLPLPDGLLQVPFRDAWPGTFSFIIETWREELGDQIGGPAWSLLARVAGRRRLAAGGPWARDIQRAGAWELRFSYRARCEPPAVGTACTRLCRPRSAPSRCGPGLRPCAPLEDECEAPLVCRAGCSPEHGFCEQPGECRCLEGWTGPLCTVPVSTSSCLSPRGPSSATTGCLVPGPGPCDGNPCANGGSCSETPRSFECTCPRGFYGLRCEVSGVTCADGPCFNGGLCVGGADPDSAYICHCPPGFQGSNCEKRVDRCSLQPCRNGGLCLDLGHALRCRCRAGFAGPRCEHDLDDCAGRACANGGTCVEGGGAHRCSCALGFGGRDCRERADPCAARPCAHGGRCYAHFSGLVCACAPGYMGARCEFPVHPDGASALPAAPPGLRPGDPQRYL

[4] = target: DLL3 endogenously expressed on NCI-H82 cells (UniProt Q9NYJ7); test: FACS on NCI-H82 cells; antibody 4 nM
[5] = target: DLL3 endogenously expressed on NCI-H82 cells (UniProt Q9NYJ7); test: FACS on NCI-H82 cells; antibody 0.00128 nM
[6] = target: DLL3 endogenously expressed on NCI-H82 cells (UniProt Q9NYJ7); test: FACS on NCI-H82 cells; antibody 20 nM
[7] = target: DLL3 endogenously expressed on NCI-H82 cells (UniProt Q9NYJ7); test: FACS on NCI-H82 cells; antibody 0.16 nM
[8] = target: DLL3 endogenously expressed on NCI-H82 cells (UniProt Q9NYJ7); test: FACS on NCI-H82 cells; antibody 0.032 nM
[9] = target: DLL3 endogenously expressed on NCI-H82 cells (UniProt Q9NYJ7); test: FACS on NCI-H82 cells; antibody 0.0064 nM
[10] = target: human DLL3 protein expressed on CHO-K1 recombinant cells (human DLL3 extracellular segment fused to EpCAM transmembrane and intracellular regions) (human) (UniProt Q9NYJ7); test: FACS, CHO-K1 hDLL3 cells, 0.0064 nM antibody
Sequence of human DLL3 protein expressed on CHO-K1 recombinant cells (human DLL3 extracellular segment fused to EpCAM transmembrane and intracellular regions) (human) (Q9NYJ7 other isoform, or with tags, fused parts or gaps limits assumed): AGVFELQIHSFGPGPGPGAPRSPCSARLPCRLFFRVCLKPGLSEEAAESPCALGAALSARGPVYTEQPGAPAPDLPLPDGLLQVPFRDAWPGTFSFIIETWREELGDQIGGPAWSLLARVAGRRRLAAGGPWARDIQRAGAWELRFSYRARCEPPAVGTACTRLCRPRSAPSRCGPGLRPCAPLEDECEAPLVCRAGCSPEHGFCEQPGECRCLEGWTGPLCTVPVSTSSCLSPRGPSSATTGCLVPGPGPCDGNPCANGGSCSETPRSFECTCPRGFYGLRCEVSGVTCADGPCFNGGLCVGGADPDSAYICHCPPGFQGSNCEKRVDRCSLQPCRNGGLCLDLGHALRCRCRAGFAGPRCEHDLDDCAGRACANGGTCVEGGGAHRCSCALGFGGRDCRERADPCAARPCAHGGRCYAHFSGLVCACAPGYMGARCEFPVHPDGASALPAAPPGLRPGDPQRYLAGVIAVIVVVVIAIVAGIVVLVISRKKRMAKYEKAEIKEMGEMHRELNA

[11] = target: monkey DLL3 on CHO-K1-cyno DLL3 cells (cynomolgus monkey); test: FACS, CHO-K1-cyno DLL3 cells, 4 nM antibody
Sequence of monkey DLL3 on CHO-K1-cyno DLL3 cells (cynomolgus monkey) (chain, as listed by the source limits assumed): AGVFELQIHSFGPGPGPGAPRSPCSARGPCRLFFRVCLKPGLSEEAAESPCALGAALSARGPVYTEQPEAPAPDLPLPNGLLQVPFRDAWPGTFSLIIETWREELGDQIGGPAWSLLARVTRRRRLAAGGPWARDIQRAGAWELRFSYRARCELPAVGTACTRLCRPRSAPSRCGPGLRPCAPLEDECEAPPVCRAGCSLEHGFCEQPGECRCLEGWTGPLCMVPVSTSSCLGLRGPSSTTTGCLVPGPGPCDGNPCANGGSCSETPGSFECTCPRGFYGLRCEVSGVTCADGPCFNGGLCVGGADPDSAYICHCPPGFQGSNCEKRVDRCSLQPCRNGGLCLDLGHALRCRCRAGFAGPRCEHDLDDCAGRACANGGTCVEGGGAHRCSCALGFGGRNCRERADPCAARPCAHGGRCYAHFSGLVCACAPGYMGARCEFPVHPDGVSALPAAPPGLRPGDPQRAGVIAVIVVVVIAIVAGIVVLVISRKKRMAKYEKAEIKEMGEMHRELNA

[12] = target: human DLL4 protein (Acro, Cat. No. DL4-H5227) (human) (UniProt Q9NR61); test: ELISA, coated hDLL4; maximum over 0.1, 1, 10, 100 nM antibody
Sequence of human DLL4 protein (Acro, Cat. No. DL4-H5227) (human) (Q9NR61 27-524 limits assumed): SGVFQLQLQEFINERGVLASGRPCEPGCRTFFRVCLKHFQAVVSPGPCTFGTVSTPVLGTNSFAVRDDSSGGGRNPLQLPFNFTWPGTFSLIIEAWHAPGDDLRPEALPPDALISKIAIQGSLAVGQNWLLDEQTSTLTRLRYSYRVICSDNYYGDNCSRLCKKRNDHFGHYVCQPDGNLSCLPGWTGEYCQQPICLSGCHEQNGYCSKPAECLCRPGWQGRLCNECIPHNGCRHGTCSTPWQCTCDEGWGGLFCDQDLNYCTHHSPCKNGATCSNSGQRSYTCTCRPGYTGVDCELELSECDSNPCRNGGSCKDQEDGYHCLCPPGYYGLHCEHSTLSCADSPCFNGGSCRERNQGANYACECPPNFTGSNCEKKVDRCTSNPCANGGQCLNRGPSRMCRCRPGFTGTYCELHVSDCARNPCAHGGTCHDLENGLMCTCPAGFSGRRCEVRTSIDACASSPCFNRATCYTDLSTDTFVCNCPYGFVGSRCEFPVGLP

[13] = target: human delta-like ligand 3 (DLL3) on SHP77 cells (human) (UniProt Q9NYJ7); test: FACS on SHP77 cells
Sequence of human delta-like ligand 3 (DLL3) on SHP77 cells (human) (Q9NYJ7 27-618, stated change not applied): as the sequence (Q9NYJ7 27-618) above

[14] = target: monkey DLL3 on CHO-K1-cyno DLL3 cells (cynomolgus monkey); test: FACS, CHO-K1-cyno DLL3 cells, 20 nM antibody
[15] = target: human DLL3 protein expressed on CHO-K1 recombinant cells (human DLL3 extracellular segment fused to EpCAM transmembrane and intracellular regions) (human) (UniProt Q9NYJ7); test: FACS, CHO-K1 hDLL3 cells, 4 nM antibody
[16] = target: human DLL3 protein expressed on CHO-K1 recombinant cells (human DLL3 extracellular segment fused to EpCAM transmembrane and intracellular regions) (human) (UniProt Q9NYJ7); test: FACS, CHO-K1 hDLL3 cells, 0.8 nM antibody
[17] = target: monkey DLL3 on CHO-K1-cyno DLL3 cells (cynomolgus monkey); test: FACS, CHO-K1-cyno DLL3 cells, 0.032 nM antibody
[18] = target: monkey DLL3 on CHO-K1-cyno DLL3 cells (cynomolgus monkey); test: FACS, CHO-K1-cyno DLL3 cells, 0.0064 nM antibody
[19] = target: monkey DLL3 on CHO-K1-cyno DLL3 cells (cynomolgus monkey); test: FACS, CHO-K1-cyno DLL3 cells, 0.8 nM antibody
[20] = target: human DLL3 protein expressed on CHO-K1 recombinant cells (human DLL3 extracellular segment fused to EpCAM transmembrane and intracellular regions) (human) (UniProt Q9NYJ7); test: FACS, CHO-K1 hDLL3 cells, 20 nM antibody
[21] = target: human DLL1 protein (Acro, Cat. No. DL1-H52H8) (human) (UniProt O00548); test: ELISA, coated hDLL1; maximum over 0.1, 1, 10, 100 nM antibody
Sequence of human DLL1 protein (Acro, Cat. No. DL1-H52H8) (human) (O00548 18-540 limits assumed): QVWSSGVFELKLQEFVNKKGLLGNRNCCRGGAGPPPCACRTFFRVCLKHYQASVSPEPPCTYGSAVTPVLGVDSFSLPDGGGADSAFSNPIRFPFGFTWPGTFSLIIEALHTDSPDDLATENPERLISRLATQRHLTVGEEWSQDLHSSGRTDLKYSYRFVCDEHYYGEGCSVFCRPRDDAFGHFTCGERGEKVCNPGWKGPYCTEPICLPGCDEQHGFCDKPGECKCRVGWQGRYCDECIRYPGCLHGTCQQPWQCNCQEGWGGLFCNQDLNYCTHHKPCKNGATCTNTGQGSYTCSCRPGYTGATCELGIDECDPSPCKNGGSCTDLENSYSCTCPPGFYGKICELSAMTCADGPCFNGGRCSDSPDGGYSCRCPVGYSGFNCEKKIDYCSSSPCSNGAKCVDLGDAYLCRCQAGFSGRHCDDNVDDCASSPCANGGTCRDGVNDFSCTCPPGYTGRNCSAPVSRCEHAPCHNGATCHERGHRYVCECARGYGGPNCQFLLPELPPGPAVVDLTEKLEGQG

[22] = target: monkey DLL3 on CHO-K1-cyno DLL3 cells (cynomolgus monkey); test: FACS, CHO-K1-cyno DLL3 cells, 0.16 nM antibody
[23] = target: human DLL3 protein expressed on CHO-K1 recombinant cells (human DLL3 extracellular segment fused to EpCAM transmembrane and intracellular regions) (human) (UniProt Q9NYJ7); test: FACS, CHO-K1 hDLL3 cells, 100 nM antibody
[24] = target: monkey DLL3 on CHO-K1-cyno DLL3 cells (cynomolgus monkey); test: FACS, CHO-K1-cyno DLL3 cells, 0.00128 nM antibody
[25] = target: human DLL3 protein expressed on CHO-K1 recombinant cells (human DLL3 extracellular segment fused to EpCAM transmembrane and intracellular regions) (human) (UniProt Q9NYJ7); test: FACS, CHO-K1 hDLL3 cells, 0.032 nM antibody
[26] = target: human DLL3 protein expressed on CHO-K1 recombinant cells (human DLL3 extracellular segment fused to EpCAM transmembrane and intracellular regions) (human) (UniProt Q9NYJ7); test: FACS, CHO-K1 hDLL3 cells, 0.00128 nM antibody
[27] = target: monkey DLL3 on CHO-K1-cyno DLL3 cells (cynomolgus monkey); test: FACS, CHO-K1-cyno DLL3 cells, 100 nM antibody
[28] = target: human DLL3 protein expressed on CHO-K1 recombinant cells (human DLL3 extracellular segment fused to EpCAM transmembrane and intracellular regions) (human) (UniProt Q9NYJ7); test: FACS, CHO-K1 hDLL3 cells, 0.16 nM antibody

Binder | MFI [1] | MFI [2] | MFI [4] | MFI [5] | MFI [6] | MFI [7] | MFI [8] | MFI [9] | MFI [10] [MFI] | MFI at 0.00128 nM [13] [MFI] | MFI at 0.0064 nM [13] [MFI] | MFI at 0.032 nM [13] [MFI] | MFI at 0.16 nM [13] [MFI] | MFI at 0.8 nM [13] [MFI] | MFI at 4 nM [13] [MFI] | MFI at 20 nM [13] [MFI] | MFI at 100 nM [13] [MFI] | MFI [15] [MFI] | MFI [16] [MFI] | MFI [20] [MFI] | also measured
B1 | 537 | 176 | 373 | 113 | 438 | 107 | 95 | 94 |  |  |  |  |  |  |  |  |  |  |  |  | Kd [3]: 0.381 nM; koff [3]: 0.00034 s⁻¹; kon [3]: 891000 M⁻¹ s⁻¹
B2 | 617 | 312 | 440 | 93 | 503 | 194 | 134 | 106 | 148 | 119 | 121 | 126 | 144 | 187 | 297 | 532 | 758 | 7440 | 3700 | 7660 | MFI [11]: 17600 MFI; Emax of OD450 nm binding value [12]: 0.07 OD450 nm; Kd [3]: 0.535 nM; koff [3]: 0.000324 s⁻¹; kon [3]: 606000 M⁻¹ s⁻¹; MFI [14]: 19500 MFI; MFI [17]: 511 MFI; MFI [18]: 231 MFI; MFI [19]: 7010 MFI; Emax of OD450 nm binding value [21]: 0.06 OD450 nm; MFI [22]: 1540 MFI; MFI [23]: 7690 MFI; MFI [24]: 129 MFI; MFI [25]: 316 MFI; MFI [26]: 109 MFI; MFI [27]: 18600 MFI; MFI [28]: 866 MFI
B3 | 1860 | 245 | 539 | 102 | 1020 | 149 | 114 | 106 | 127 | 121 | 120 | 123 | 139 | 186 | 333 | 793 | 1530 | 6530 | 2170 | 7750 | MFI [11]: 12100 MFI; Emax of OD450 nm binding value [12]: 0.69 OD450 nm; MFI [14]: 18400 MFI; MFI [17]: 286 MFI; MFI [18]: 159 MFI; MFI [19]: 2940 MFI; Emax of OD450 nm binding value [21]: 0.24 OD450 nm; MFI [22]: 711 MFI; MFI [23]: 8400 MFI; MFI [24]: 116 MFI; MFI [25]: 221 MFI; MFI [26]: 103 MFI; MFI [27]: 18400 MFI; MFI [28]: 521 MFI
B4 |  |  |  |  |  |  |  |  | 458 | 105 | 128 | 196 | 396 | 673 | 769 | 852 | 954 | 12800 | 11800 | 13300 | MFI [23]: 13400 MFI; MFI [25]: 1500 MFI; MFI [26]: 204 MFI; MFI [28]: 5730 MFI
